Experimental data: patent publication US20110195896A1, “ISOFORM-SPECIFIC INSULIN ANALOGUES” (CASE WESTERN RESERVE UNIVERSITY, priority 2008, published 2011)

Tests used:
[1] = molecular target: human insulin receptor isoform B (human) (UniProt P06213); assay: competitive displacement of 125I-insulin from receptor
[2] = molecular target: human insulin receptor isoform B (human) (UniProt P06213); assay: competitive displacement of 125I-human insulin, FLAG-tagged receptor captured on anti-FLAG plate; settings: scale: % of the affinity of human insulin for IR-A

Chain of His^A8, Asp^B10, Asp^B28, Pro^B29 insulin (two chain analogue) (ligand) (chain): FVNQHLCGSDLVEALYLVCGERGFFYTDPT
Chain of His^A8, Asp^B10, Asp^B28, Pro^B29 insulin (two chain analogue) (ligand) (chain): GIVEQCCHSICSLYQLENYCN

Row | Kd [1] [nM] | relative affinity (relative to human insulin) [1] | relative affinity [2] | Substance
1 | 0.01 | 4.7 |  | His^A8, Asp^B10, Asp^B28, Pro^B29 insulin (two chain analogue) (ligand)
2 |  |  | 0.7 | Insulin-like Growth Factor 1 (from UniProt P05019 49-118) (ligand)
3 |  |  | 4 | insulin-like growth factor II (from UniProt P01344 25-91) (ligand)
